Three molecules from patent publication US20110091971A1, “Differentiation of Pluripotent Stem Cells” (priority 2008, published 2011) can be followed below.

Where a chain is given by its changes, count along the chain named. Where “and” joins values, the source holds several entries; their conditions need not be identical. Identical values can stand only once.

The test has as its system H1 or H9 human embryonic stem cells. Put plainly: Activin A bioassay: differentiation of human embryonic stem cells to definitive endoderm, cell number and SOX17 intensity by high content analysis (96-well, four days).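 For Cell Number average: Raw total cell count per well from high content imaging.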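 For Sox 17 Intensity average: total fluorescence of the cell multiplied by cell area.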 It is filed as cell-based. The procedure, abridged: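 Read-out was cell count and integrated SOX17 immunofluorescence by high-content imaging, with each well divided by the mean of the 100 ng/ml activin A control. Over the four-day culture, test samples were given in DMEM:F12 with 0.5% FCS plus 20 ng/ml Wnt3a for the first two days and in 2% FCS alone for the last two. Cells were H1 or H9 hESC clusters grown on Matrigel.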

[1] abbreviates: concentrated supernatant (10x; ACTD3 4x), assay dilution 1:20.
Where [2] appears, read: supernatant concentration 1x, assay dilution 1:20.
The mark [3] stands for this setting: supernatant concentration 10x, assay dilution 1:20.
[4] abbreviates: supernatant concentration 10x, assay dilution 1:20, assay plates #007, #009, #010.
Setting [5] is: supernatant concentration 10x, assay dilution 1:40.
Where [6] appears, read: supernatant concentration 10x, assay dilution 1:40, control = R&D Sys Activin A 100 ng/ml on same plate.
Where [7] appears, read: supernatant concentration 50x, assay dilution 1:20, assay plates #008, #009.
[8] abbreviates: supernatant concentration 50x, assay dilution 1:20, control = R&D Sys Activin A 100 ng/ml on same plate.
The mark [9] stands for this setting: supernatant concentration 10x, assay dilution 1:20, control = R&D Sys Activin A 100 ng/ml on same plate.

B1: ACTN1: wild type Activin A mature protein (SwissProt/UniProt: P08476), SEQ ID 2, expressed from applicant's construct (protein)
chain: GLECDGKVNICCKKQFFVSFKDIGWNDWIIAPSGYHANYCEGECPSHIAGTSGSSLSFHSTVINHYRMRGHSPFANLKSCCVPTKLRPMSMLYYDDGQNIIKKDIQNMIVEECGCS
Turning to B1, the “activity in the cell-based assay, as judged by cell number and SOX17 intensity increases” value (ACTN 1 pUnder construct versus OriGene wildtype construct, CHO-S or HEK293-F supernatants) is on record as “greater activity”. Moreover, the “expression/activity of supernatant measured by SOX17 expression levels” value reads like this: (CHOS cells, even after concentrating the supernatant) “weak or negligible results”; (pUnder expression vector and HEK293F cells) “significantly improved”. The “Cell Number average” value by setting is: under setting [1], 12233; under setting [2], 4284 and 5466; under setting [3], 7083 and 9254; under setting [4], 12543 and 11568 and 15112; under setting [5], 5924; under setting [7], 13673. Further, the “Sox 17 Intensity average” value under setting [1] came out at 1.15E+08, the “Sox 17 Intensity average” value under setting [5] came out at 1.10E+08 and the “Sox 17 Intensity average” value under setting [7] is listed as 2.60E+08. Besides, the “Sox 17 Intensity % of control” value by setting is: (concentrated supernatant (10x; ACTD3 4x), assay dilution 1:20, control = R&D Sys Activin A 100 ng/ml) 263%; under setting [6], 480.5%; under setting [8], 470.1%.

B2: ACTN4: activin A variant peptide, SEQ ID 5 (protein)
chain: B1 chain with I10L, F16L, Y39H, E41S, E43L, A75S, N76D, L77M, K78G, S79A
Turning to B2, the “higher potency of supernatant concentrated 10× relative to corresponding unconcentrated supernatant” value (primary screening, SOX17 expression, H1 cells) turned out to be 2.6 fold. Also, the “Cell Number average” value runs as follows: under setting [2], 6380; under setting [3], 8916; under setting [5], 6548. For the same molecule, the “Sox 17 Intensity average” value came out at 9.099E+07 under setting [2], 2.385E+08 under setting [3] and 2.075E+08 under setting [5]. Besides, the “Sox 17 Intensity % of control” value reads like this: (supernatant concentration 1x, assay dilution 1:20, control = R&D Sys Activin A 100 ng/ml on same plate) 49.5%; under setting [9], 129.7%; under setting [6], 112.8%.

B3: ACTN48: activin A variant peptide, SEQ ID 49 (protein)
chain: B1 chain with I10L, F16N, Y39E, E41S, E43L, L77M, K78G, S79A, V82I
On to B3, for which the “Cell Number average” value runs as follows: under setting [4], 6030; under setting [7], 8941. For the same molecule, the “Sox 17 Intensity average” value is listed as 1.77E+07 under setting [4] and 3.93E+07 under setting [7]. Also, the “Sox 17 Intensity % of control” value is, setting by setting: under setting [9], 71.1%; under setting [8], 157.8%.
